The values below come from US20020082273A1, “Agents for use in the treatment of alzheimer's disease” (priority 1998, published 2002).

This assay relates to Aβ1-40 or Aβ1-42 SDS-resistant polymers. As to the kind of experiment: Dissolution of in vitro Cu^2+-induced SDS-resistant Aβ polymers. It is filed as biochemical, human.

B1: proteinase K: protease (protein, UniProt P06873 106-384, looked up)
Proteinase K: AAQTNAPWGLARISSTSPGTSTYYYDESAGQGSCVYVIDTGIEASHPEFEGRAQMVKTYYYSSRDGNGHGTHCAGTVGSRTYGVAKKTQLFGVKVLDDNGSGQYSTIIAGMDFVASDKNNRNCPKGVVASLSLGGGYSSSVNSAAARLQSSGVMVAVAAGNNNADARNYSPASEPSVCTVGASDRYDRRSSFSNYGSVLDIFGPGTSILSTWIGGSTRSISGTSMATPHVAGLAAYLMTLGKTTAASACRYIADTANKGDLSNIPFGTVNLLAYNNYQA
As for B1, the “degradation of SDS-resistant Aβ polymers” value was “complete degradation”.
